The results in this text go back to patent US20100287629A1 (published 2010).

For this assay, the target named is T1, native human CD4 on the cell surface (human, UniProt P01730 26-458).
T1 construct: whole, on cells; also called CD4 on SupT1 cells; CD4 on human PBL/PBMC
The assay is described as follows: flow cytometry on SupT1 cells; half-maximal fluorescence, four-parameter fit. As to the method:
The avidity and affinity determinations described above were performed with recombinant CD4 (rCD4). To determine the avidity of the human monoclonal antibodies for native CD4 (nCD4). […] Specifically, serial dilutions of antibody were incubated with SupT1 cells for 6 hr on ice, washed and detected any bound antibody with FITC-goat anti-human Fcγ.
*Human monoclonal antibodies were incubated in serial dilutions with SupT1 cells for 6 hrs, washed twice and incubated with FITC-conjugated goat anti-human Fcγ antisera, washed and fixed. The Ka was calculated from the concentration of antibody yielding one-half of the maximum fluorescence as determined from a four-parameter fit.
On the technique in general: In flow cytometry, cells or beads pass a laser one at a time.

B1: human IgG kappa anti-CD4 monoclonal antibody 6G5 (antibody, V domains shown)
VH: QVQLQQWGAGLLKPSETLSLTCAVYGGSFSGYYWSWIRQPPGKGLEWIGEINHSGSTNYNPSLKSRVTISVDTSKNQFSLKLSSVTAADTAVYYCARVINWFDPWGQGTLVTVSS
VL: DIQMTQSPSSVSASVGDRVTITCRASQDISSWLAWYQHKPGKAPKLLIYAASSLQSGVPSRFSGSGSGTDFTLTISSLQPEDFATYYCQQANSFPYTFGQGTKLEIK
notes: Human IgG1 kappa from hybridoma of an HC2/KCo5/JHD/JCKD mouse; CDR3 VINWFDP (VH4-34, JH5); l.c; also called 6G5.1
Molecule B1 returned a Ka of 1.9e+09 M⁻¹.

B2: human IgG kappa anti-CD4 monoclonal antibody 10C5 (antibody, V domains shown)
VH: B1 VH
VL: B1 VL
notes: Human IgG1 kappa from hybridoma of an HC2/KCo5/JHD/JCKD mouse; CDR3 VINWFDP (VH4-34, JH5); l.c; same primary B cell as 6G5; also called 10C5.6
For B2, the Ka is 1.8e+09 M⁻¹.
